Source: US20160185837A1 (AstraZeneca / MedImmune, published 2016)
Read-outs that look alike come from different tables or passages of the source.

T1: human GIP receptor (human, UniProt P48546 22-466)
T1 sequence (looked up): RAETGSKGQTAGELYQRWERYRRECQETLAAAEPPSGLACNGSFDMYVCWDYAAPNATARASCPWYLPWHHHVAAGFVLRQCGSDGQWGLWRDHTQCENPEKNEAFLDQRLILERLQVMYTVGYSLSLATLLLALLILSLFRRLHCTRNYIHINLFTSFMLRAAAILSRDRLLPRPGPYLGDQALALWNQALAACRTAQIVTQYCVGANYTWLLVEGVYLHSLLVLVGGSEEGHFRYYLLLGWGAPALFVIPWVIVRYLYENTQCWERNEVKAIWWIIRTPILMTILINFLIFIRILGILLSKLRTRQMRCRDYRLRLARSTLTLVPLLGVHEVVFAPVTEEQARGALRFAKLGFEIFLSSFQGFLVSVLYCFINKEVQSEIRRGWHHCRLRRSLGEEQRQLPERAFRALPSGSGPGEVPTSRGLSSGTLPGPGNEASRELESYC

T2: mouse GLP-1 receptor (mouse, UniProt O35659 22-463)
T2 sequence (looked up): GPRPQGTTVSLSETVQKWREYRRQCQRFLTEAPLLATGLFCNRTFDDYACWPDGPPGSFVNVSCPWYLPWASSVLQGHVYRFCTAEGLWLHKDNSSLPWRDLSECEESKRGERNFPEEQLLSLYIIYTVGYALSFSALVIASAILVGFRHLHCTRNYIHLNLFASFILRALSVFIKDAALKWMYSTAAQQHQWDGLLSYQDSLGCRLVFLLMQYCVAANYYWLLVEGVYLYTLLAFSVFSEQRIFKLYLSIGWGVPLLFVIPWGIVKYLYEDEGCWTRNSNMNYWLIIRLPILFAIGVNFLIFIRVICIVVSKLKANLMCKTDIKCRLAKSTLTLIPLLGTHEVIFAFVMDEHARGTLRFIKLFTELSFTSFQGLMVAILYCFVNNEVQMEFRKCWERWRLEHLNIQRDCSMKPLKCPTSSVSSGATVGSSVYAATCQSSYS

T3: mouse GIP receptor (mouse, UniProt Q0P543 19-460)
T3 sequence (looked up): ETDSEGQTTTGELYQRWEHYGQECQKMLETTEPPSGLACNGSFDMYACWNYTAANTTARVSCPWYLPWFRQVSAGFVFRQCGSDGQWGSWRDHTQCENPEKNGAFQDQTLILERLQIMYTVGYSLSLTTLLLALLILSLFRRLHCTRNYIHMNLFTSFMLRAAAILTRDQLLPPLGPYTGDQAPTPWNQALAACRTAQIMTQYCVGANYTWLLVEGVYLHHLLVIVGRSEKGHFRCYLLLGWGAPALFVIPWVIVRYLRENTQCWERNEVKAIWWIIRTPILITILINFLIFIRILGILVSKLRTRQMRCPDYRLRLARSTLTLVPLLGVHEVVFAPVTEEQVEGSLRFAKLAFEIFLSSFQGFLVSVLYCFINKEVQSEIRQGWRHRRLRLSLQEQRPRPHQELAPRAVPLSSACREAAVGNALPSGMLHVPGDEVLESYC

T4: rat GLP-1 receptor (rat, UniProt P32301 22-463)
T4 sequence (looked up): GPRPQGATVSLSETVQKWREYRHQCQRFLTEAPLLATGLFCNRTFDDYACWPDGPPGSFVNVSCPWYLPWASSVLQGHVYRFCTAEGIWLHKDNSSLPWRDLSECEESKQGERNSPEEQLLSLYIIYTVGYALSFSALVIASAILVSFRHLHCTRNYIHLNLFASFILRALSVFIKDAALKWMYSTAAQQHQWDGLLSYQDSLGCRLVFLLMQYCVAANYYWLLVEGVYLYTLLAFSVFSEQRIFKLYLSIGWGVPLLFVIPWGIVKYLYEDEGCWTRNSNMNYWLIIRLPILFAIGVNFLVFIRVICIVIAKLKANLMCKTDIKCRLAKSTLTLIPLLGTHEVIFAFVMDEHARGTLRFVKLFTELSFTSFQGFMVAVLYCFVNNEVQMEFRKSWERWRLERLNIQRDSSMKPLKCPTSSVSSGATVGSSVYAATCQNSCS

T5: rat GIP receptor (rat, UniProt P43219 19-455)
T5 sequence (looked up): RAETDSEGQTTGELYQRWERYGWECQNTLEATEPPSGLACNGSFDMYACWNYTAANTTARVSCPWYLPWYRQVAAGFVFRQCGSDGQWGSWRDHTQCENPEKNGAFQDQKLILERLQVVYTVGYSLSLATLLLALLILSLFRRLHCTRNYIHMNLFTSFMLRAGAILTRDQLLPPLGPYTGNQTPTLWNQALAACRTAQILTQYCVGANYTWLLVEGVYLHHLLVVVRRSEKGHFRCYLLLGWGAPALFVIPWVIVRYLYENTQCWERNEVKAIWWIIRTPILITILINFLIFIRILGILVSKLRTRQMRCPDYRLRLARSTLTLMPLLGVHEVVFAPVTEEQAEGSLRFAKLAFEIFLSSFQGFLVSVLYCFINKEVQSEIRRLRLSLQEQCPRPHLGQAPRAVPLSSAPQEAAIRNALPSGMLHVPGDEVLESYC

B1: IP088 (Fc fusion)
chain: YSEGTFTSDYSKLLEEEAVRLFIEWLVKGPAAAGGSGSTASSGSGSATGGGGAATHTCPPCPAPEF
B2: IP317 (Fc fusion)
chain: YSEGTFTSDVSSYLEKQAIDEFIAWLLKGGAAAGGSGSTASSGSGSATGGGGAATHTCPPC

Legend:
Assay in all cases: cell-based or functional assay
human GLP-1 receptor [1] = target: T6, human GLP-1 receptor (human, UniProt P43220 24-463)
human glucagon receptor = human glucagon receptor (human, UniProt P47871 26-477)
human GIP receptor [2] = target: T1, human GIP receptor
mouse GLP-1 receptor [3] = target: T2, mouse GLP-1 receptor
mouse GIP receptor [4] = target: T3, mouse GIP receptor
rat GLP-1 receptor [5] = target: T4, rat GLP-1 receptor
rat GIP receptor = target: T5, rat GIP receptor
human GLP-1 receptor [6] = target: T6, human GLP-1 receptor; remark: listed apart in the source
human GIP receptor [7] = target: T1, human GIP receptor; remark: listed apart in the source
mouse GLP-1 receptor [8] = target: T2, mouse GLP-1 receptor; remark: listed apart in the source
mouse GIP receptor [9] = target: T3, mouse GIP receptor; remark: listed apart in the source
rat GLP-1 receptor [10] = target: T4, rat GLP-1 receptor; remark: listed apart in the source
[11] = target: cynomolgus monkey GLP-1 receptor (cynomolgus monkey, UniProt F8V479 24-463)
[12] = target: cynomolgus monkey glucagon receptor (cynomolgus monkey)

Binder | cAMP EC50 (human GLP-1 receptor [1]) [nM] | cAMP EC50 (human glucagon receptor) [nM] | cAMP EC50 (human GIP receptor [2]) [nM] | cAMP EC50 (mouse GLP-1 receptor [3]) [nM] | cAMP EC50 (mouse GIP receptor [4]) [nM] | cAMP EC50 (rat GLP-1 receptor [5]) [nM] | cAMP EC50 (rat GIP receptor) [nM] | cAMP EC50 (human GLP-1 receptor [6]) [nM] | cAMP EC50 (human GIP receptor [7]) [nM] | cAMP EC50 (mouse GLP-1 receptor [8]) [nM] | cAMP EC50 (mouse GIP receptor [9]) [nM] | cAMP EC50 (rat GLP-1 receptor [10]) [nM] | cAMP EC50, 4.2% cyno serum albumin [11] [nM] | cAMP EC50, 4.2% cyno serum albumin [12] [nM]
B1 | 0.076 | 460 | 0.0078 | 0.31 | 86 | 0.033 | 0.1 | 0.222 | 0.016 | 0.42 | 137 | 0.038 | 0.19 | > 1000
B2 | 0.13 | > 5550 | 0.11 | 0.33 | 86 | 0.012 | 5.3 |  |  |  |  |  |  | 
